# Laboratory results taken from patent publication US20190330277A1.
# How the values were obtained:
# [1] = molecular target: RB94 sc9 DS-CAV1 A149C-Y458C L373R Long S190V; experiment: ELISA, variant from culture supernatant on Ni-NTA plate
# [2] = molecular target: 391-2_DS-Cav1-tzsc5; experiment: as above
# [3] = molecular target: 391-2-DS-Cav1-IP-4; experiment: as above
# [4] = molecular target: sc9-10_DS-CAV1_bRSV(RB94)_Fd_hp1_fp2_ig1; experiment: as above
# [5] = molecular target: RB94 site 0 hRSV DS-Cav1 Long FdPL; experiment: as above
# [6] = molecular target: 391-2-DS-Cav1-BZGJ9_gyc1; experiment: as above
# [7] = molecular target: RB94 sc9 DS-CAV1 N183GC-N428C L373R; experiment: as above
# [8] = molecular target: RB94 dscav1T369C-T455C Long S190V; experiment: as above
# [9] = molecular target: RB94 hu/bov DS-CAV1 A149C-Y458C Long; experiment: as above
# [10] = molecular target: RB94 DS-CAV1 T369C-T455C Long; experiment: as above
# [11] = molecular target: 391-2-DS-Cav1-IP-5; experiment: as above
# [12] = molecular target: RB94 sc9 DS-CAV1 N183GC-N428C L373R Long; experiment: as above
# [13] = molecular target: 391-2-DS-Cav1-sc9deleteFS 99C-361C; experiment: as above
# [14] = molecular target: 391-2-DS-Cav1_ sc9_S485C-A490C; experiment: as above
# [15] = molecular target: 391-2_DS-Cav1-tzsc3; experiment: as above
# [16] = molecular target: RB94 DS-Cav1 Long FdPL; experiment: as above
# [17] = molecular target: 391-2 hu/bov-DS-Cav1-BZGJ9 Long; experiment: as above
# [18] = molecular target: RB94 sc9 DS-CAV1 A149C-Y458C L373R Long K226L; experiment: as above
# [19] = molecular target: 391-2 sc9 DS-Cav1 98C-362C; experiment: as above
# [20] = molecular target: sc9-10_DS-CAV1_bRSV(RB94)_Fd_pm1_fp2_ig1; experiment: as above
# [21] = molecular target: 391-2-DS-Cav1_ sc9_T449C-V459C; experiment: as above
# [22] = molecular target: 391-2-DSCav1- F-SC_7R; experiment: as above
# [23] = molecular target: 391-2-DS-Cav1-sc9deleteFS 99C-362C; experiment: as above
# [24] = molecular target: sc9-10_DS-CAV1_bRSV(RB94)_Fd_hp2_fp1_ig1; experiment: as above
# [25] = molecular target: 391-2wt-F_SC_11R; experiment: as above
# [26] = molecular target: sc9-10_DS-CAV1_bRSV(RB94)_Fd_pm1_ig1; experiment: as above
# [27] = molecular target: 391-2-DS-Cav1-sc9 100C-361C; experiment: as above
# [28] = molecular target: sc9-10_DS-CAV1_bRSV(RB94)_Fd_hp2_ig1; experiment: as above
# [29] = molecular target: 391-2-DS-Cav1-BZGJ9 Long S190V; experiment: as above
# [30] = molecular target: RB94 sc9 DS-CAV1 A149C-Y458C L373R; experiment: as above
# [31] = molecular target: RB94 sc9 DS-CAV1 N183GC-N428C L373R Long S190V; experiment: as above
# [32] = molecular target: 391-2-DS-Cav1-sc9deleteFS 100C-361C; experiment: as above
# [33] = molecular target: RB94 site 0 hRSV bovSurf DS-Cav1-BZGJ9 Long FdPL; experiment: as above
# [34] = molecular target: sc9-10_DS-CAV1_bRSV(RB94)_Fd_hp1_ig1; experiment: as above
# [35] = molecular target: 391-2-DS-Cav1_ S398C-S485C; experiment: as above
# [36] = molecular target: 391-2-DS-Cav1-sc9 99C-361C; experiment: as above
# [37] = molecular target: RB94 sc9 DS-CAV1 A149C-Y458C L373R Long; experiment: as above
# [38] = molecular target: bRSV RB94 DSCav1 (bovine respiratory syncytial virus, strain RB94) (UniProt P23728)
# [39] = molecular target: bRSV RB94 DSCav1 (bovine respiratory syncytial virus, strain RB94) (UniProt P23728); experiment: biolayer interferometry Octet binding analysis
substance,measurement,setting,value
motavizumab (antibody),ELISA binding value,[1],0.537
same,ELISA binding value,[2],1.57
same,ELISA binding value,[3],0.933
same,ELISA binding value,[4],1.8
same,ELISA binding value,[5],1.75
same,ELISA binding value,[6],2.12
same,ELISA binding value,[7],1.04
same,ELISA binding value,[8],0.511
same,ELISA binding value,[9],0.79
same,ELISA binding value,[10],0.448
same,ELISA binding value,[11],1.83
same,ELISA binding value,[12],0.488
same,ELISA binding value,[13],0.606
same,ELISA binding value,[14],0.595
same,ELISA binding value,[15],0.785
same,ELISA binding value,[16],0.841
same,ELISA binding value,[17],1.7
same,ELISA binding value,[18],0.486
same,ELISA binding value,[19],0.75
same,ELISA binding value,[20],1.32
same,ELISA binding value,[21],0.49
same,ELISA binding value,[22],0.649
same,ELISA binding value,[23],0.612
same,ELISA binding value,[24],2.18
same,ELISA binding value,[25],1.79
same,ELISA binding value,[26],2.22
same,ELISA binding value,[27],1.63
same,ELISA binding value,[28],2.52
same,ELISA binding value,[29],1.31
same,ELISA binding value,[30],0.564
same,ELISA binding value,[31],0.617
same,ELISA binding value,[32],0.477
same,ELISA binding value,[33],2.21
same,ELISA binding value,[34],2.42
same,ELISA binding value,[35],0.545
same,ELISA binding value,[36],1.68
same,ELISA binding value,[37],0.512
same,ELISA binding value,[38],0.371
same,response level (biolayer interferometry),[39],0.5 nm
